In patent US20200234789A1, “DESIGNED PROTEINS FOR LIGAND BINDING” (THE REGENTS OF THE UNIVERSITY OF CALIFORNIA, priority 2017, published 2020):

Assay: Porphyrin binding to apo-protein, electronic absorption spectra ((CF3)4PFe loading)
Protocol: FIG. 9. Scaled absorption spectra of (CF3)4PM/PS1 complexes, M=Zn^2+, Fe^2+. Loading of (CF3)4PFe into PS1 was ˜40-50%, likely due to the extreme insolubility of the porphyrin. The featured bands at 550-650 nm indicate that (CF3)4PFe is in a homogenous environment in the ferrous state. […] The peak at 423 nm is also indicative of a homogenous binding environment. The absorption spectra were scaled to reflect the relative extinction coefficients of the porphyrins. Buffer=50 mM NaPi, 100 mM NaCl, pH 7.5.
A 2-fold excess of the cofactor (CF3)4PZn was added from a 4 mM DMSO stock solution to a 50 mM NaPi, 100 mM NaCl, pH 7.5 buffer with apo-protein (Note that final DMSO concentrations were kept <1%.). Buffer solution of apo-PS1 protein was heated for 5 minutes at 50° C., (CF3)4PZn was then added from the DMSO stock solution, the resultant mixture was vortexed for 5 seconds, and placed back in the heat block at 50° C. for 15 minutes, with vortexing every 3 minutes. The protein/cofactor solution was then spun at 14000×g in a Amicon Ultra-0.5 mL centrifuge filter for 10 min, three times, replacing the buffer to 0.5 mL after each 10 min spin. Finally, the protein solution was spun for 4 min at 12000×g in an Amicon ultrafree-MC GV filter (UFC30GV0S). The holo-PS1 sample was then used for spectroscopic experiments immediately afterward, and diluted to an appropriate concentration if necessary. […]

binding of (CF3)4PFe (ferrous iron-derivative of the porphyrin): binds
loading of (CF3)4PFe (50 mM NaPi, 100 mM NaCl, pH 7.5): 40-50%
B1: PS1: de novo designed porphyrin-binding four-helix bundle protein; designed sequence SEQ ID NO:1, expressed His-tag-cleaved sequence SEQ ID NO:2 (protein)
chain: SEFEKLRQTGDELVQAFQRLREIFDKGDDDSLEQVLEEIEELIQKHRQLFDNRQEAADTEAAKQGDQWVQLFQRFREAIDKGDKDSLEQLLEELEQALQKIRELAEKKN
